Test results: US20190292247A1

Key:
Assay in all cases: ELISA on immobilized antigen, streptavidin-HRP detection; value is the average over oligomer, monomer and fibril
[1] = target: amyloid beta 1-42 oligomer (UniProt P05067)
[2] = target: amyloid beta 1-42 monomer (UniProt P05067)
[3] = target: amyloid beta 1-42 fibril (UniProt P05067)

Measured: EC50

Chain of amyloid beta 1-42 oligomer (P05067 672-713 limits assumed): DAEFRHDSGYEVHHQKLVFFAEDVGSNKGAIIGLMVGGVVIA
Chain of amyloid beta 1-42 monomer (P05067 672-713 limits assumed): as above
Chain of amyloid beta 1-42 fibril (P05067 672-713 limits assumed): as above

6E10 antibody (biotinylated)
0.031 µg/mL: [1] | [2] | [3]
